# Source: patent US20110105394A1 (Novo Nordisk, published 2011)
# *1 amine or outer side, *2 acyl side, *3 side chain or, on linkers, in order; H or OH if unused. Bridges are numbered along the chain shown (N, C = ends). Where no end group is shown, it is not given here. Side-chain parts run from the residue outwards. The star is where a group is joined. X1 = (S)‑4‑Carboxy‑4‑(17-carboxyheptadecanoylamino)butyryl, O=C(O)CCCCCCCCCCCCCCCCC(=O)N[C@@H](CCC(=O)*)C(=O)O; C20 diacid = O=C(O)CCCCCCCCCCCCCCCCCCC(=O)*; γGlu = O=C(O)[C@H](CCC(=O)[*:2])N[*:1]; AEEA = NCCOCCOCC(=O)O
# T1: Amylin 3(a) receptor (human calcitonin receptor (CTa) with RAMP-3) (human, UniProt P30988 25-474; O60896 24-148, limits assumed)
# T1 sequence (looked up) 1: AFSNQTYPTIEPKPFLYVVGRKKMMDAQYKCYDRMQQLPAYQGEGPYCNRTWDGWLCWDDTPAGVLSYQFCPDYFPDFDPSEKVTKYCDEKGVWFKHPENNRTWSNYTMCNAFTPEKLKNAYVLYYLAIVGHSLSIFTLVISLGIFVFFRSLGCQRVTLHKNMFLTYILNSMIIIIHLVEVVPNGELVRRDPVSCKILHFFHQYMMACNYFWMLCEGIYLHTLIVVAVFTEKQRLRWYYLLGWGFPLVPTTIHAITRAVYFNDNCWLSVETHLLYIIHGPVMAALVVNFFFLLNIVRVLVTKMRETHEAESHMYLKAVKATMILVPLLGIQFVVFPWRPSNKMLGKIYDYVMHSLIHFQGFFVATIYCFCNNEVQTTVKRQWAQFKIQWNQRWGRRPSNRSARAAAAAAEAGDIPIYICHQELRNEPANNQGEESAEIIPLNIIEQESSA
# T1 sequence (looked up) 2: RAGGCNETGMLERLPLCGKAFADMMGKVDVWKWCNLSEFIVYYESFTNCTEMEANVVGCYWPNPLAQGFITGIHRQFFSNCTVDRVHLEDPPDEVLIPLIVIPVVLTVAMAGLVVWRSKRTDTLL
# B1: N-alpha-[(S)-4-Carboxy-4-(17-carboxyheptadecanoylamino)butyryl]-Arg-[Arg17]-pramlintide (peptide)
# peptide: X1-RKCNTATCATQRLANFLRHSSNNFGPILPPTNVGSNTY-NH2
# modifications: disulfide 3-8
# SMILES: CC[C@H](C)[C@H](NC(=O)[C@@H]1CCCN1C(=O)CNC(=O)[C@H](Cc1ccccc1)NC(=O)[C@H](CC(N)=O)NC(=O)[C@H](CC(N)=O)NC(=O)[C@H](CO)NC(=O)[C@H](CO)NC(=O)[C@H](Cc1c[nH]cn1)NC(=O)[C@H](CCCNC(=N)N)NC(=O)[C@H](CC(C)C)NC(=O)[C@H](Cc1ccccc1)NC(=O)[C@H](CC(N)=O)NC(=O)[C@H](C)NC(=O)[C@H](CC(C)C)NC(=O)[C@H](CCCNC(=N)N)NC(=O)[C@H](CCC(N)=O)NC(=O)[C@@H](NC(=O)[C@H](C)NC(=O)[C@@H]1CSSC[C@H](NC(=O)[C@H](CCCCN)NC(=O)[C@H](CCCNC(=N)N)NC(=O)CC[C@H](NC(=O)CCCCCCCCCCCCCCCCC(=O)O)C(=O)O)C(=O)N[C@@H](CC(N)=O)C(=O)N[C@@H]([C@@H](C)O)C(=O)N[C@@H](C)C(=O)N[C@@H]([C@@H](C)O)C(=O)N1)[C@@H](C)O)C(=O)N[C@@H](CC(C)C)C(=O)N1CCC[C@H]1C(=O)N1CCC[C@H]1C(=O)N[C@H](C(=O)N[C@@H](CC(N)=O)C(=O)N[C@H](C(=O)NCC(=O)N[C@@H](CO)C(=O)N[C@@H](CC(N)=O)C(=O)N[C@H](C(=O)N[C@@H](Cc1ccc(O)cc1)C(N)=O)[C@@H](C)O)C(C)C)[C@@H](C)O
# B2: N-alpha-[2-(2-{2-[4-(S)-Carboxy-4-(19-carboxynonadecanoylamino)butyrylamino]ethoxy}ethoxy)acetyl]-Arg-[Arg17]-pramlintide (peptide)
# peptide: {C20 diacid-γGlu-AEEA}-RKCNTATCATQRLANFLRHSSNNFGPILPPTNVGSNTY-NH2
# modifications: disulfide 3-8
# SMILES: CC[C@H](C)[C@H](NC(=O)[C@@H]1CCCN1C(=O)CNC(=O)[C@H](Cc1ccccc1)NC(=O)[C@H](CC(N)=O)NC(=O)[C@H](CC(N)=O)NC(=O)[C@H](CO)NC(=O)[C@H](CO)NC(=O)[C@H](Cc1c[nH]cn1)NC(=O)[C@H](CCCNC(=N)N)NC(=O)[C@H](CC(C)C)NC(=O)[C@H](Cc1ccccc1)NC(=O)[C@H](CC(N)=O)NC(=O)[C@H](C)NC(=O)[C@H](CC(C)C)NC(=O)[C@H](CCCNC(=N)N)NC(=O)[C@H](CCC(N)=O)NC(=O)[C@@H](NC(=O)[C@H](C)NC(=O)[C@@H]1CSSC[C@H](NC(=O)[C@H](CCCCN)NC(=O)[C@H](CCCNC(=N)N)NC(=O)COCCOCCNC(=O)CC[C@H](NC(=O)CCCCCCCCCCCCCCCCCCC(=O)O)C(=O)O)C(=O)N[C@@H](CC(N)=O)C(=O)N[C@@H]([C@@H](C)O)C(=O)N[C@@H](C)C(=O)N[C@@H]([C@@H](C)O)C(=O)N1)[C@@H](C)O)C(=O)N[C@@H](CC(C)C)C(=O)N1CCC[C@H]1C(=O)N1CCC[C@H]1C(=O)N[C@H](C(=O)N[C@@H](CC(N)=O)C(=O)N[C@H](C(=O)NCC(=O)N[C@@H](CO)C(=O)N[C@@H](CC(N)=O)C(=O)N[C@H](C(=O)N[C@@H](Cc1ccc(O)cc1)C(N)=O)[C@@H](C)O)C(C)C)[C@@H](C)O
# B3: N-alpha-[2-(2-{2-[4-(S)-Carboxy-4-(19-carboxynonadecanoylamino)butyrylamino]ethoxy}ethoxy)acetyl]-Arg-[Ala17]-pramlintide (peptide)
# peptide: {C20 diacid-γGlu-AEEA}-RKCNTATCATQRLANFLAHSSNNFGPILPPTNVGSNTY-NH2
# modifications: disulfide 3-8
# SMILES: CC[C@H](C)[C@H](NC(=O)[C@@H]1CCCN1C(=O)CNC(=O)[C@H](Cc1ccccc1)NC(=O)[C@H](CC(N)=O)NC(=O)[C@H](CC(N)=O)NC(=O)[C@H](CO)NC(=O)[C@H](CO)NC(=O)[C@H](Cc1c[nH]cn1)NC(=O)[C@H](C)NC(=O)[C@H](CC(C)C)NC(=O)[C@H](Cc1ccccc1)NC(=O)[C@H](CC(N)=O)NC(=O)[C@H](C)NC(=O)[C@H](CC(C)C)NC(=O)[C@H](CCCNC(=N)N)NC(=O)[C@H](CCC(N)=O)NC(=O)[C@@H](NC(=O)[C@H](C)NC(=O)[C@@H]1CSSC[C@H](NC(=O)[C@H](CCCCN)NC(=O)[C@H](CCCNC(=N)N)NC(=O)COCCOCCNC(=O)CC[C@H](NC(=O)CCCCCCCCCCCCCCCCCCC(=O)O)C(=O)O)C(=O)N[C@@H](CC(N)=O)C(=O)N[C@@H]([C@@H](C)O)C(=O)N[C@@H](C)C(=O)N[C@@H]([C@@H](C)O)C(=O)N1)[C@@H](C)O)C(=O)N[C@@H](CC(C)C)C(=O)N1CCC[C@H]1C(=O)N1CCC[C@H]1C(=O)N[C@H](C(=O)N[C@@H](CC(N)=O)C(=O)N[C@H](C(=O)NCC(=O)N[C@@H](CO)C(=O)N[C@@H](CC(N)=O)C(=O)N[C@H](C(=O)N[C@@H](Cc1ccc(O)cc1)C(N)=O)[C@@H](C)O)C(C)C)[C@@H](C)O
# B4: N-alpha-[(S)-4-Carboxy-4-(19-carboxynonadecanoylamino)butyryl]-His-[His1,His17]-pramlintide (peptide)
# peptide: HHCNTATCATQRLANFLHHSSNNFGPILPPTNVGSNTY-NH2
# modifications: disulfide 3-8; not fully specified (N-terminus); printed as N-alpha-[(S)-4-Carboxy-4-(19-carboxynonadecanoylamino)butyryl]-His-[His1,His17]-pramlintide
# B5: N-alpha-[(S)-4-Carboxy-4-(19-carboxynonadecanoylamino)butyryl]-His-[His17]-pramlintide (peptide)
# peptide: HKCNTATCATQRLANFLHHSSNNFGPILPPTNVGSNTY-NH2
# modifications: disulfide 3-8; not fully specified (N-terminus); printed as N-alpha-[(S)-4-Carboxy-4-(19-carboxynonadecanoylamino)butyryl]-His-[His17]-pramlintide
# B6: N-alpha-[(S)-4-Carboxy-4-(17-carboxyheptadecanoylamino)butyryl]-His-[His1,His17]-pramlintide (peptide)
# peptide: X1-HHCNTATCATQRLANFLHHSSNNFGPILPPTNVGSNTY-NH2
# modifications: disulfide 3-8
# SMILES: CC[C@H](C)[C@H](NC(=O)[C@@H]1CCCN1C(=O)CNC(=O)[C@H](Cc1ccccc1)NC(=O)[C@H](CC(N)=O)NC(=O)[C@H](CC(N)=O)NC(=O)[C@H](CO)NC(=O)[C@H](CO)NC(=O)[C@H](Cc1c[nH]cn1)NC(=O)[C@H](Cc1c[nH]cn1)NC(=O)[C@H](CC(C)C)NC(=O)[C@H](Cc1ccccc1)NC(=O)[C@H](CC(N)=O)NC(=O)[C@H](C)NC(=O)[C@H](CC(C)C)NC(=O)[C@H](CCCNC(=N)N)NC(=O)[C@H](CCC(N)=O)NC(=O)[C@@H](NC(=O)[C@H](C)NC(=O)[C@@H]1CSSC[C@H](NC(=O)[C@H](Cc2c[nH]cn2)NC(=O)[C@H](Cc2c[nH]cn2)NC(=O)CC[C@H](NC(=O)CCCCCCCCCCCCCCCCC(=O)O)C(=O)O)C(=O)N[C@@H](CC(N)=O)C(=O)N[C@@H]([C@@H](C)O)C(=O)N[C@@H](C)C(=O)N[C@@H]([C@@H](C)O)C(=O)N1)[C@@H](C)O)C(=O)N[C@@H](CC(C)C)C(=O)N1CCC[C@H]1C(=O)N1CCC[C@H]1C(=O)N[C@H](C(=O)N[C@@H](CC(N)=O)C(=O)N[C@H](C(=O)NCC(=O)N[C@@H](CO)C(=O)N[C@@H](CC(N)=O)C(=O)N[C@H](C(=O)N[C@@H](Cc1ccc(O)cc1)C(N)=O)[C@@H](C)O)C(C)C)[C@@H](C)O
# Target: T1, Amylin 3(a) receptor (human calcitonin …)
# Experiment: cell-based or functional assay
row,Potency Luciferase,Binder
1,0.03 nM,{C20 diacid-4‑aminobutyryl}-RKCNTATCATQRLANFLRHSSNNFGPILPPTNVGSNTY-NH2 (disulfide 3-8) [N-alpha-[4-(19-Carboxynonadecanoylamino)butyryl]-Arg-[Arg17]-pramlintide]
2,0.06 nM,{C20 diacid-4‑aminobutyryl}-CNTATCATQRLANFLHHSSNNFGPILPPTNVGSNTY-NH2 (disulfide 1-6) [N-alpha-[4-(19-Carboxynonadecanoylamino)butyryl]-[His17]-pramlintide (2-37)]
3,0.05 nM,B1
4,0.1 nM,B2
5,0.07 nM,"{C20 diacid-γGlu}-HCNTATCATQRLANFLHHSSNNFGPILPPTNVGSNTY-NH2 (disulfide 2-7) [N-alpha-[(S)-4-Carboxy-4-(19-carboxynonadecanoylamino)butyryl]-[His1,His17]-pramlintide]"
6,0.08 nM,B3
7,0.1 nM,B4
8,0.1 nM,B5
9,0.02 nM,B6
10,0.4 nM,KCK([AEEA-Glu-Glu-C20 diacid])TATCATQRLANFLHHSSDNFGPILPPTNVGSNTY-NH2 (disulfide 2-7)
